Source: patent US20190389910A1 (ORUM THERAPEUTICS, published 2019)

Key:
[1] = molecular target: human recombinant integrin αvβ5 (αv extracellular domain-acidic leucine zipper-His×6 with β5 extracellular domain-basic leucine zipper) (human) (UniProt P06756); assay: BLI (Octet), antibody on AHC biosensor, integrin αvβ5 as analyte
[2] = molecular target: human recombinant integrin αvβ5 (αv extracellular domain-acidic leucine zipper-His×6 with β5 extracellular domain-basic leucine zipper) (human) (UniProt P06756); assay: BLI (Octet), antibody captured on anti-human IgG Fc (AHC) biosensor, integrin αvβ5 3.1-100 nM as analyte, divalent cations
[3] = molecular target: human recombinant integrin αvβ6 (αv extracellular domain-acidic leucine zipper-His×6 with β6 extracellular domain-basic leucine zipper) (human) (UniProt P06756); assay: BLI (Octet), antibody captured on anti-human IgG Fc (AHC) biosensor, integrin αvβ6 3.1-100 nM as analyte, divalent cations
[4] = molecular target: human recombinant integrin αvβ6 (αv extracellular domain-acidic leucine zipper-His×6 with β6 extracellular domain-basic leucine zipper) (human) (UniProt P06756); assay: BLI (Octet), antibody on AHC biosensor, integrin αvβ6 as analyte
[5] = molecular target: heparan sulfate proteoglycan (HSPG) expressed on HeLa cells; assay: cell-based or functional assay
[6] = molecular target: T1, EpCAM (epithelial cell adhesion molecule) expressed on the cell surface of human tumor cells (human, UniProt P16422 24-314); assay: flow cytometry on HCT116 and SW480 cells; 100 nM antibody with 300 IU/mL heparin, Alexa488 anti-human Fc
T1 construct: whole, on cells; also called cell surface EpCAM; EpCAM receptor
T1 sequence (looked up): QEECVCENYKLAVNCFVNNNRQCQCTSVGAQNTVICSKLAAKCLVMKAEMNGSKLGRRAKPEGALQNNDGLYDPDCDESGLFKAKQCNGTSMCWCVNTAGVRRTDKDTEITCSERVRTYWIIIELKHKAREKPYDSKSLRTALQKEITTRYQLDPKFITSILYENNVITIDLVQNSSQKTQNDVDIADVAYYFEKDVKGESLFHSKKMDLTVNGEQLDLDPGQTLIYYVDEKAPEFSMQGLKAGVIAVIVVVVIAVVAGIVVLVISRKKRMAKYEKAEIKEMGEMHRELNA
Protocol: Cell surface-binding levels of the indicated CTs, coincubated at 100 nM with 300 IU/mL heparin for 1 h at 4° C. with the indicated cells before analysis (lower panels). An isotype control is used as a negative control.
Then, each antibody was reacted with antibodies specific for human Fc to which Alexa488 (green fluorescence) was linked, at 4° C. for 30 min. After washing with PBS, the cells were analyzed by flow cytometry.

human recombinant integrin αvβ6 (αv extracellular domain-acidic leucine zipper-His×6 with β6 extracellular domain-basic leucine zipper) (human), sequence (P06756 other isoform, or with tags, fused parts or gaps, chain 1 of 2): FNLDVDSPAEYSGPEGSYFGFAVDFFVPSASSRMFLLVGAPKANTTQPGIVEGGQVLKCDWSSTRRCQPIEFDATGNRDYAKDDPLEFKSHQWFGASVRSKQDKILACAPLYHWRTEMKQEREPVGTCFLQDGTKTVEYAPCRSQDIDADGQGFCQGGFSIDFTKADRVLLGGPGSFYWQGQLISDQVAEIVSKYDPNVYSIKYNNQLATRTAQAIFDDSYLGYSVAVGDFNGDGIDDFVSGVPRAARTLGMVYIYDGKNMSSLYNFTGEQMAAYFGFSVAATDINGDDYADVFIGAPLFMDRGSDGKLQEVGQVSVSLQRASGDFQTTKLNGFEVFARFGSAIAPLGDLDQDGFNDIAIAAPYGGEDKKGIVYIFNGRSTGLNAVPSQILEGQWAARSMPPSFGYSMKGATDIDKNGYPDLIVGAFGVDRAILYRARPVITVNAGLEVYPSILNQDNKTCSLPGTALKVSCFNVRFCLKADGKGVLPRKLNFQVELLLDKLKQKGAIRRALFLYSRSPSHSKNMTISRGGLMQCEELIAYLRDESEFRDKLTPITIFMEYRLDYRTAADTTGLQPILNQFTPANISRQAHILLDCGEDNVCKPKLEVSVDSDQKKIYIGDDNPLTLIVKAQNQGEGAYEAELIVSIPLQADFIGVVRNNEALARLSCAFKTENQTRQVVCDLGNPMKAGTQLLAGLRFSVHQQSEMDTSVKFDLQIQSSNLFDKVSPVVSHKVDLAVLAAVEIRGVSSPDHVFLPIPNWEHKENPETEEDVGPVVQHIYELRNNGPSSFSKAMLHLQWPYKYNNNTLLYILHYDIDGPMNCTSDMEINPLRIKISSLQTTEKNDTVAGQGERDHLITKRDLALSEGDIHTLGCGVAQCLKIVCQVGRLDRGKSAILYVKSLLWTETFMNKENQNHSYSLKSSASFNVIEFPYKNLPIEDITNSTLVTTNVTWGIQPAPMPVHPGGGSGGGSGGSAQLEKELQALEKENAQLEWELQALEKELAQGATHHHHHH
human recombinant integrin αvβ6 (αv extracellular domain-acidic leucine zipper-His×6 with β6 extracellular domain-basic leucine zipper) (human), sequence (chain, as listed by the source, chain 2 of 2): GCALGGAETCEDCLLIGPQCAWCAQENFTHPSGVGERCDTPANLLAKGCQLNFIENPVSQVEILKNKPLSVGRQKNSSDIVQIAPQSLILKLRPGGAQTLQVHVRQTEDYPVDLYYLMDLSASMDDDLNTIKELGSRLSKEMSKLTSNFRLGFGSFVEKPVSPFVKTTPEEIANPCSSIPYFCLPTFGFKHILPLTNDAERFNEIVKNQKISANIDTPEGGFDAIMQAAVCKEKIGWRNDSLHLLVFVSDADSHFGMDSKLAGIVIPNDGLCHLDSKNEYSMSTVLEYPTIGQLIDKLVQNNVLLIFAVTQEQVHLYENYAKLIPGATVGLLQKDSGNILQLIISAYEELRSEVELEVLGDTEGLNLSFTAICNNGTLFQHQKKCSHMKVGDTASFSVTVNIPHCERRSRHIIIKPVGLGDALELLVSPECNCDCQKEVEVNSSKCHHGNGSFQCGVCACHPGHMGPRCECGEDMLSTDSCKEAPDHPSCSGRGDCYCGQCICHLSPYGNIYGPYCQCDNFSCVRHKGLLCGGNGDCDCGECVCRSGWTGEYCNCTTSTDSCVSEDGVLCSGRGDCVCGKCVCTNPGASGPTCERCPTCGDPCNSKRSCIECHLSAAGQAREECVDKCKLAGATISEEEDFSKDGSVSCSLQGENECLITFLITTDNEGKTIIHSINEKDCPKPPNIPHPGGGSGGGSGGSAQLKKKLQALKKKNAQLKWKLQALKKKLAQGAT
human recombinant integrin αvβ5 (αv extracellular domain-acidic leucine zipper-His×6 with β5 extracellular domain-basic leucine zipper) (human), sequence (P06756 other isoform, or with tags, fused parts or gaps, chain 1 of 2): as the sequence (P06756 other isoform, or with tags, fused parts or gaps, chain 1 of 2) above
human recombinant integrin αvβ5 (αv extracellular domain-acidic leucine zipper-His×6 with β5 extracellular domain-basic leucine zipper) (human), sequence (chain, as listed by the source, chain 2 of 2): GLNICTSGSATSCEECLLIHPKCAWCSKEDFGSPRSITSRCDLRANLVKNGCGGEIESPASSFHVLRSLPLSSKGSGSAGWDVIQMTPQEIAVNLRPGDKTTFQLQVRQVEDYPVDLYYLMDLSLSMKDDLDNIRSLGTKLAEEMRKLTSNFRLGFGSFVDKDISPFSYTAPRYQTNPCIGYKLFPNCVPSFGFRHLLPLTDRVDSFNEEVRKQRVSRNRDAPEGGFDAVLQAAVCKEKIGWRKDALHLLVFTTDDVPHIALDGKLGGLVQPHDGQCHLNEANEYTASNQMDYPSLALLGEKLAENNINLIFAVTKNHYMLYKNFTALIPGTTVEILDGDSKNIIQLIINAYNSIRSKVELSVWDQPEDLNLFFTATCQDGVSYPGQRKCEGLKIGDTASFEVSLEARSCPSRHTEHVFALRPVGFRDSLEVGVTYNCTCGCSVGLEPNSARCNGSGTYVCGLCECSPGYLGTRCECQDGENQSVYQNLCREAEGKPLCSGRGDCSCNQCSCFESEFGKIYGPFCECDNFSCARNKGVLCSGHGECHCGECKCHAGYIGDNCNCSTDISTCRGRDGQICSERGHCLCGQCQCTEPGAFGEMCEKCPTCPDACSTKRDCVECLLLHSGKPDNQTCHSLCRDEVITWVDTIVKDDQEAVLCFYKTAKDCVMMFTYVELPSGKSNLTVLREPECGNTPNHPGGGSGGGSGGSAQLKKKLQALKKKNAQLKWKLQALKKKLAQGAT

B1: 5#1-Ras03 (antibody, part only; not given: RT22 heavy chain, constant regions, V domains shown, not shown: another chain or arm of the molecule; a dimerising Fc or GST; large carriers; small tags and cut ends)
VL: LPSGACVVRGDTFQCVSVGMGSSSNDIQMTQSPSSLSASVGDRVTITCKSSQSLLNSRDGKNYLAWYQQKPGKAPKLLIYWASTRESGVPSRFSGSGSGTDFTLTISSLQPEDFATYFCQQYWYWMYTFGQGTKVEIK
modifications: chain 1: disulfide bond Cys6-Cys15 closes the 5#1 cyclic peptide
[1]
  fold higher affinity than in4-Ras03: 2 fold
[2]
  Kd: 1.13 nM
  koff: 6.39e-05 s⁻¹
  kon: 56700 M⁻¹ s⁻¹

B2: 6#6-Ras03 (antibody, part only; not given: RT22 heavy chain, light constant, V domains shown, not shown: another chain or arm of the molecule; a dimerising Fc or GST)
VL: LGPLPCQTRGDLFSLCHYMGSSSNDIQMTQSPSSLSASVGDRVTITCKSSQSLLNSRDGKNYLAWYQQKPGKAPKLLIYWASTRESGVPSRFSGSGSGTDFTLTISSLQPEDFATYFCQQYWYWMYTFGQGTKVEIK
modifications: chain 1: disulfide bond Cys6-Cys16 closes the cyclic peptide
[3]
  Kd: 0.843 nM
  koff: 0.000182 s⁻¹
  kon: 216000 M⁻¹ s⁻¹
[4]
  fold higher binding affinity than in4-Ras03: 12 fold

B3: CT03b (antibody, V domains shown)
VH: EVQLVESGGGLVQPGGSLRLSCAASGYTFTSYVMHWVRQAPGKGLEWVSAINPYNDGNYYADSVKGRFTISRDNSRKTLYLQMNSLRAEDTAVYYCARGAYKRGYAMDYWGQGTTVTVSS
VL: DLVMTQSPSSLSASVGDRVTITCKSSQSLLNSRDGNTYLAWYQQKPGKAPKLLIYWLSYRASGVPSRFSGSGSGTDFTLTISSLQPEDFATYFCQQYWYWMYTFGQGTKVEIKR
[5]
  fluorescence intensity of antibody located in the cytoplasm (confocal microscopy, HeLa cells, 1 µM, 6 h): 12.4%

B4: CT05 (antibody, V domains shown)
VH: EVQLVESGGGLVQPGGSLRLSCAASGYTFTSYVMHWVRQAPGKGLEWVSAINPYNDGNYYADSVKGRFTISRDNSRKTLYLQMNSLRAEDTAVYYCARGAYKRGYAMDYWGQGTTVTVSS
VL: DIQMTQSPSSLSASVGDRVTITCKSSQSLLNSRDGKNYLAWYQQKPGKAPKLLIYDASNLETGVPSRFSGSGSGTDFTFTISSLQPEDIATYFCQQYWYWMYTFGGGTKVEIKR
notes: Intact IgG without a cyclic peptide; also called CT05 VL variant
[6]
  binding result: no binding (tested: 100 nM)
[5]
  fluorescence intensity of internalized antibody relative to TMab4-WYW (confocal microscopy, HeLa cells, 1 µM, 6 h): 17.3%
